Reference: article PMC8034652 (Nucleic Acids Research, 2021)

B1: FOXO1 R225A mutant (domain or fragment)
chain: KSSSSRRNAWGNLSYADLITKAIESSAEKRLTLSQIYEWMVKSVPYFKDKGDSNSSAGWKNSIRHNLSLHSKFIAVQNEGTGKSSWWMLNPEGGKSGKSPRRRAASMDNNSKFAKS
B2: FOXO1 Q227A mutant (domain or fragment)
chain: KSSSSRRNAWGNLSYADLITKAIESSAEKRLTLSQIYEWMVKSVPYFKDKGDSNSSAGWKNSIRHNLSLHSKFIRVANEGTGKSSWWMLNPEGGKSGKSPRRRAASMDNNSKFAKS

Molecular target: the molecule itself
Experiment: native gel or EMSA

Protein | binding result
B1 | binds
B2 | binds
